Experimental findings from the RNAGym collection of RNA variant scans (doi:10.1073/pnas.2313332121) are described below.

B1: TPR t1 (parent)
chain: GACCAAUCUGCCCUCAGAGCUCGAGAACAUCUUCGGAUGCAGAGGAGGCAGGCUUCGGUGGCGCGAUAGCGCCAACGUCCUCAACCUCCAAUGCAUCCCACCACAUGAUGAUGCCUGAAGAGCCUUGGUUUUUUG

The variants in this data set derive from B1. Kind of data set: polymerase ribozyme fitness, log enrichment relative to wild type (log ratio); higher = more active; in vitro selection for triplet polymerase activity. The essentials:
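A heterodimeric triplet polymerase ribozyme had each of its subunits mutagenized by PCR into a library, which was transcribed. One round of in vitro selection, done in triplicate, annealed each library with a biotinylated primer, its partner subunit and triplets, then incubated it frozen at −7 °C before gel excision of extended constructs, streptavidin-bead capture and RT-PCR. Fitness is the logarithm of genotype enrichment relative to wild-type enrichment, based on Illumina sequencing of inputs and outputs and inverse-variance-weighted replicate averages. A base-2 logarithm is used, and genotypes were kept only with ≥10 input reads and ≥1 read per output.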
In the case of C15G A29G C88G U129A, the “polymerase ribozyme fitness (log ratio)” value is -3.95.

Take C82A A118G A121G: the “polymerase ribozyme fitness (log ratio)” value stood at 1.48.

In the case of C15U G60A C73U U78A G135U, the “polymerase ribozyme fitness (log ratio)” value is -1.76.

As to C49A C70U C82A C104U A105U C123G G135U, the “polymerase ribozyme fitness (log ratio)” value was -5.46.

Regarding U9A G117U, the “polymerase ribozyme fitness (log ratio)” value is -1.08.

With C3A G39A A68G G128U, the “polymerase ribozyme fitness (log ratio)” value is -4.5.

With C49A C86A U129G, the “polymerase ribozyme fitness (log ratio)” value is -1.96.

Regarding C8U G48A C72U, the “polymerase ribozyme fitness (log ratio)” value came to 0.0222.

A2U U9G: the “polymerase ribozyme fitness (log ratio)” value is -1.32.

As to U59A U92G C104U, the “polymerase ribozyme fitness (log ratio)” value was -2.6.

For the variant U7G C11U C49A C56A G107U C114U, the “polymerase ribozyme fitness (log ratio)” value is -4.37.

Take G52A C73U: the “polymerase ribozyme fitness (log ratio)” value was -0.414.

For the variant G61C C89U, the “polymerase ribozyme fitness (log ratio)” value was -1.58.

On to G61U C73A U78A, for which the “polymerase ribozyme fitness (log ratio)” value is -1.43.

For C28U G60A C72G G110C C115G G120U, the “polymerase ribozyme fitness (log ratio)” value is -7.22.

For G48U G110C, the “polymerase ribozyme fitness (log ratio)” value was -4.65.

Take C31U C72U U112A: the “polymerase ribozyme fitness (log ratio)” value is -3.81.

On to G10A A29G A43U C70U C89A, for which the “polymerase ribozyme fitness (log ratio)” value was -4.19.

In the case of G52U C98U, the “polymerase ribozyme fitness (log ratio)” value was -2.89.

On to C13A A90U, for which the “polymerase ribozyme fitness (log ratio)” value was -3.48.

Turning to C4G U9G G23A G113C, the “polymerase ribozyme fitness (log ratio)” value is -4.79.

In the case of G61A G113C G135A, the “polymerase ribozyme fitness (log ratio)” value was -2.34.

With C12U G36U G47U U106G, the “polymerase ribozyme fitness (log ratio)” value was -5.66.

C56U A95G C101A: the “polymerase ribozyme fitness (log ratio)” value was -1.46.

Regarding G10U G61U, the “polymerase ribozyme fitness (log ratio)” value turned out to be 0.128.

For G36A G47A G61U, the “polymerase ribozyme fitness (log ratio)” value was -1.37.

C12A A37U A105G G122A: the “polymerase ribozyme fitness (log ratio)” value was -3.74.

For the variant C73A U109C, the “polymerase ribozyme fitness (log ratio)” value was -2.34.

Take U9A G36C: the “polymerase ribozyme fitness (log ratio)” value was found to be 0.19.

Regarding C11U C12G C15U C70U, the “polymerase ribozyme fitness (log ratio)” value was -1.83.

For C11G A50C U92G C114A G122C U131C, the “polymerase ribozyme fitness (log ratio)” value was -3.35.

As for C20A C89U U130A, the “polymerase ribozyme fitness (log ratio)” value is -3.54.

For C94U U125G, the “polymerase ribozyme fitness (log ratio)” value is -1.32.

In the case of C94U U125A, the “polymerase ribozyme fitness (log ratio)” value is -0.818.

As to G69U C94A C101G G120U, the “polymerase ribozyme fitness (log ratio)” value was -1.15.

On to U55C U96A U106A, for which the “polymerase ribozyme fitness (log ratio)” value was -0.506.

On to C4G C8G A26G G71A G120U, for which the “polymerase ribozyme fitness (log ratio)” value was -1.19.

On to G39C A43G C124U, for which the “polymerase ribozyme fitness (log ratio)” value is -0.831.

In the case of G25A C72G, the “polymerase ribozyme fitness (log ratio)” value was -5.55.

For the variant A66G C97U U112G, the “polymerase ribozyme fitness (log ratio)” value was -2.06.

As for C8A G113C, the “polymerase ribozyme fitness (log ratio)” value was -1.59.

On to A18U G42U G63C A66G C123U, for which the “polymerase ribozyme fitness (log ratio)” value is -4.29.

On to U7G C40U A41C G71U G113A, for which the “polymerase ribozyme fitness (log ratio)” value is -2.26.

As to A16C G60C A111G, the “polymerase ribozyme fitness (log ratio)” value is -1.81.

As to C11U C34G A46U G120A A121G, the “polymerase ribozyme fitness (log ratio)” value is -5.6.

In the case of C12A C20G A83G C85U A95G, the “polymerase ribozyme fitness (log ratio)” value was -5.21.

As to C53G G77C, the “polymerase ribozyme fitness (log ratio)” value was -0.807.

For the variant G51A A68G C123G, the “polymerase ribozyme fitness (log ratio)” value was -4.37.

With C40U G48C, the “polymerase ribozyme fitness (log ratio)” value is -1.59.

As to A83C G135U, the “polymerase ribozyme fitness (log ratio)” value is -0.881.

Turning to A46U U55C A95C, the “polymerase ribozyme fitness (log ratio)” value is -2.5.

For the variant G51A A74C, the “polymerase ribozyme fitness (log ratio)” value is -4.63.

With U9G C34U A103U, the “polymerase ribozyme fitness (log ratio)” value was -4.66.

Take G45U A68G C79G C99U U112A: the “polymerase ribozyme fitness (log ratio)” value was -7.19.

In the case of C4U, the “polymerase ribozyme fitness (log ratio)” value is -0.513.

G42U G61A: the “polymerase ribozyme fitness (log ratio)” value is -1.21.

Regarding A37U G44A G113C U130A, the “polymerase ribozyme fitness (log ratio)” value is -3.29.

For A26U C82G C97A C98A U112A, the “polymerase ribozyme fitness (log ratio)” value is -6.74.

Take U55A G61C U96A G120C: the “polymerase ribozyme fitness (log ratio)” value was -1.22.

As to C53G U92G A105U, the “polymerase ribozyme fitness (log ratio)” value was -6.44.

Turning to G39A C72U C99U G120A U126C, the “polymerase ribozyme fitness (log ratio)” value was -3.09.

Take C28G U87G: the “polymerase ribozyme fitness (log ratio)” value is -2.01.

Consider U38G C49A G77U C85G C115A, for which the “polymerase ribozyme fitness (log ratio)” value is -3.84.

Take C98U A118C: the “polymerase ribozyme fitness (log ratio)” value was -4.03.

Consider C12G G36A C94A, for which the “polymerase ribozyme fitness (log ratio)” value is -3.18.

As to C28U C104U, the “polymerase ribozyme fitness (log ratio)” value is -2.27.

For U9A C13A G42C A43U A100U, the “polymerase ribozyme fitness (log ratio)” value is -3.76.

Regarding C72G U132C, the “polymerase ribozyme fitness (log ratio)” value was -0.428.

For the variant C15A A24G, the “polymerase ribozyme fitness (log ratio)” value is -5.73.

For G63A A66C, the “polymerase ribozyme fitness (log ratio)” value is -2.96.

For the variant C8U G44A G60A A121C G122U, the “polymerase ribozyme fitness (log ratio)” value is -1.04.

For the variant G47A U87C U112A, the “polymerase ribozyme fitness (log ratio)” value came out at 0.24.

For G47C A95G U133A, the “polymerase ribozyme fitness (log ratio)” value was -2.16.

Turning to C3A A18G G19C A90U C123U U129G, the “polymerase ribozyme fitness (log ratio)” value is -0.538.

Take A26U C72A: the “polymerase ribozyme fitness (log ratio)” value is -2.97.

As to C11G C124A, the “polymerase ribozyme fitness (log ratio)” value stood at 2.13.

On to G61C A84U G93C G128A, for which the “polymerase ribozyme fitness (log ratio)” value was -5.12.

Consider G47A U54C U59A C94G A118C U130C, for which the “polymerase ribozyme fitness (log ratio)” value was -5.44.

In the case of A100C A121G, the “polymerase ribozyme fitness (log ratio)” value was found to be 1.39.

Turning to C88U G122A, the “polymerase ribozyme fitness (log ratio)” value is -1.42.

Regarding C13G C53A G69U C79A G120C, the “polymerase ribozyme fitness (log ratio)” value is -0.403.

For the variant G25C G61A, the “polymerase ribozyme fitness (log ratio)” value was -4.35.

A29C G71A C88G C123A U131C: the “polymerase ribozyme fitness (log ratio)” value is -4.27.
